In US20160130329:

Target: T1, H3K9me2 peptide
T1 chain: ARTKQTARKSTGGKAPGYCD

B1: SUV39H1 (protein)
chain: EVEYLCDYKKIREQEYYLVKWRGYPDSESTWEPRQNLKCVRILKQFHKDLERELLRRHHRSKTPRHLDPSLANYLVQKAKQRRALRRWEQELNAKRSHLGRITVENEVDLDGPPRAFVYINEYRVGEGITLNQVAVGCECQDCLWAPTGGCCPGASLHKFAYNDQGQVRLRAGLPIYECNSRCRCGYDCPNRVVQKGIRYDLCIFRTDDGRGWGVRTLEKIRKNSFVMEYVGEIITSEEAERRGQIYDRQGATYLFDLDYVEDVYTVDAAYYGNISHFVNHSCDPNLQVYNVFIDNLDERLPRIAFFATRTIRAGEELTFDYNMQVDPVDMESTRMDSNFGLAGLPGSPKKRVRIECKCGTESCRKYLF
histone methyltransferase activity (H3K9me3 product detected by ELISA with 309M3-A): activity of the HMT SUV39H1 and its inhibition by an HMT inhibitor, chaetocin (Greiner et al., 2005), were clearly observed with 309M3-A
